The target in assay [1] is T1, murine IL-11 (mouse, UniProt P47873 22-199).
T1 construct: Invigate recombinant protein; biotinylated when immobilized in the Di-complex ELISA; also called mIL11; mIL-11
T1 sequence: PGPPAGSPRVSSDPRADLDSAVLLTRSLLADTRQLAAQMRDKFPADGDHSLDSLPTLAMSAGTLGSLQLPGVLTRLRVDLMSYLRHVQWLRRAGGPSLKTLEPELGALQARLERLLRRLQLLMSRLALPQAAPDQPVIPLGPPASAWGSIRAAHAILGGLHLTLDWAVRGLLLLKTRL
The assay is described as follows: Tri-complex ELISA, mIL-11 + mIL-11Ra-Fc + mgp130-Fc, inhibition of complex formation. As for the experimental part:
In a first step, 25 μl of goat anti human IgG (Sigma, #12136), diluted 1:1000 in coating buffer (Candor, #121125) was coated on the plate at 4° C. overnight. Next day, the plate was washed one time with 50 μl PBST and then blocked with 50 μl SmartBlock (Candor, #113125) for one hour at room temperature (RT). […] After three additional washes of the coated and blocked microtiter plate with PBS-T, 25 μl of each mixture were added and the assay plate was incubated for one hour at room temperature. After three additional washes, anti-mouse-gp130 biotinylated antibody (R&D, #BAF468) or anti-human gp130 biotinylated antibody (R&D, #BAF228), both 1:1000 in 10% SmartBlock PBS-T, was added and incubated for 1 hour at RT. After three additional washes, a Streptavidin-Peroxidase conjugate (Sigma, #S5512) 1:1000 in SmartBlock PBS-T was added and incubated for one hour at room temperature. After a final three washes, AmplexRed (Fisher Scientific, A12222), 1/1000 in PBS, 0,003% H₂O₂, was added as substrate and incubated for 15 min at RT in the dark. Then, the fluorescence was measured with a plate reader at 535/595 nm. Signals from dose responses were used to calculate IC50 values using GraphPad Prism software. Efficacy was calculated as [(signal measured at lowest antibody concentration−signal measured at the highest antibody concentration)×100] divided by (signal measured at lowest antibody concentration−signal measured in the absence of antibody at an IL11 concentration of 8.2E-11 [M]).
(§1) IgG converted antibodies were subjected to the experimental assay procedure described in Example 19 and IC50 [M], respectively efficacy (%) were calculated accordingly.
In general terms: An ELISA detects its analyte on a solid surface through an enzyme-linked reagent.

In the next assay the target is T2, human IL2Ra (human, UniProt P01589 22-240, limits assumed).
T2 construct: coated on the ELISA plate; also called IL-2 receptor alpha
T2 sequence (looked up): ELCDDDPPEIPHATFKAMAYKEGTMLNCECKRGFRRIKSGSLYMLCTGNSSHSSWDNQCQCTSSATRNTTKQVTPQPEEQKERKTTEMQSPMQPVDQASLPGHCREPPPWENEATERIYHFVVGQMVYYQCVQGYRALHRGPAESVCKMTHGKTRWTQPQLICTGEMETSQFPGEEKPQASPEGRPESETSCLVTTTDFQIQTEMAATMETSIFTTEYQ
The assay is described as follows: ELISA on coated IL2Ra, signal ratio to isotype control TPP-10159 at 3.3E-7 M antibody. As for the experimental part: IL2RA (Peprotech, Germany, #200-02RC) was coated at 1 or 0 μg/ml (buffer only control) in 30 μl coating buffer (Candor, #113500) per well on a 384 well microtiter plate (Maxisorb, Nunc, #460518) over night at 4-8° C. After two washes with 50 μl/well washing buffer (PBS+0.05% Tween, pH 7.4), the plates were incubated for two hours at room temperature with 50 μl/well SmartBlock (Candor, #113500). After blocking, the plates were washed three times with washing buffer. Then, a dilution series of the respective antibody (1E-7 [M] down to 2E-13 [M]) in PBS+0.05% Tween, 10% SmartBlock were added in 30 μl to the microtiter plate and incubated for 90 min at room temperature. After three additional washes, 30 μl anti mouse IgG HRP-conjugated antibody (Biotechne, HAF007), diluted 1:1000 in PBS+0.05% Tween (pH 7.4), were added per well and incubated for one hour. After three additional washes, a mixture of Amplex red (Invitrogen, #12222, 10 mM stock solution in DMSO) 1:1000 diluted in PBS and H2O2 (30%, Merck, #107209)) diluted 1:10000 in PBS were added as substrate with 30 μl per well and incubated for 20 min in the dark. Relative fluorescence was measured with a microtiter plate reader at 535/590 nm.
IgG converted antibodies TPP-were tested for binding to IL2Ra as described in Example 20. The ratios of the signals obtained at an antibody concentration of 3.3E-7 [M] for IgG converted antibody versus the isotype control TPP-10159 were calculated and are shown in Table E22.

In assay [2] the target is T3, human IL-11 (human, UniProt P20809 22-199).
T3 construct: Invigate recombinant protein; biotinylated when immobilized in the Di-complex ELISA; also called hIL11; hIL-11
T3 sequence: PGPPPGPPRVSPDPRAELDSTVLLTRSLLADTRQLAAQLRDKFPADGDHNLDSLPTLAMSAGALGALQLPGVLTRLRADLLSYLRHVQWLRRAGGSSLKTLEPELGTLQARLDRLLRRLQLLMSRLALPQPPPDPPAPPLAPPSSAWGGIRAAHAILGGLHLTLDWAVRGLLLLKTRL
The assay is described as follows: Tri-complex ELISA, hIL-11 + mIL-11Ra-Fc + hgp130-Fc, inhibition of complex formation. As for the experimental part:
In the Tri-complex ELISA format IL-11 antibodies are tested for their ability to inhibit the formation of a complex consisting of murine or human gp130-Fc fusion protein, with murine or human IL-11, and a murine IL11RA-Fc fusion protein. The assay format was adapted according to FIG. 18 (a, b), depending on whether murine or human IL-11 IgG antibodies were tested.
as §1

Assay [3] has as its target T3, human IL-11. The assay is described as follows: cell-based or functional assay.
Another assay addresses T4, rat IL-11 (rat, UniProt Q99MF5 22-199).
T4 sequence: T1 sequence with S50N, L84F, G94A, V137A, I138V
The assay is described as follows: cell-based or functional assay.

Assay [4] deals with T1, murine IL-11. The assay is described as follows: cell-based or functional assay.
The next assay has as its target T5, cynomolgus IL-11 (cynomolgus, UniProt P20808 22-199).
T5 sequence: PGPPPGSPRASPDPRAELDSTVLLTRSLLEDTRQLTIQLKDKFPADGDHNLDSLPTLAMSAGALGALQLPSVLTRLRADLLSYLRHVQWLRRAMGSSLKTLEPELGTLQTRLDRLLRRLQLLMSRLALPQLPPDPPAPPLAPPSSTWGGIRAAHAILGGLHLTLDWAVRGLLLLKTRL
The assay is described as follows: cell-based or functional assay.

Assay [5] deals with T3, human IL-11. The assay is described as follows: cell-based or functional assay. This is another data set of the same source.
In assay [6] the target is T1, murine IL-11. The assay is described as follows: cell-based or functional assay. This is another data set of the same source.

Numbering of substitutions follows the chain as printed. Read-outs that look alike come from different tables or passages of the source.

B1: TPP-29520 (antibody, mouse IgG1)
heavy: QVQLVESGGGVVQPGRSLRLSCAASGFTFSHYDMHWVRQAPGKGLEWVAVISYSGSVKFYADSVKGRFTISRDNSKNTLYLQMNSLRAEDTAVYYCARTPGSHFDYWGQGTLVTVSSAKTTPPSVYPLAPGSAAQTNSMVTLGCLVKGYFPEPVTVTWNSGSLSSGVHTFPAVLQSDLYTLSSSVTVPSSTWPSETVTCNVAHPASSTKVDKKIVPRDCGCKPCICTVPEVSSVFIFPPKPKDVLTITLTPKVTCVVVDISKDDPEVQFSWFVDDVEVHTAQTQPREEQFNSTFRSVSELPIMHQDWLNGKEFKCRVNSAAFPAPIEKTISKTKGRPKAPQVYTIPPPKEQMAKDKVSLTCMITDFFPEDITVEWQWNGQPAENYKNTQPIMDTDGSYFVYSKLNVQKSNWEAGNTFTCSVLHEGLHNHHTEKSLSHSPGK
light: QSVLTQPPSASGTPGQRVTISCSGSSSNIGSNYVNWYQQLPGTAPKLLIYYDDLRPSGVPDRFSGSKSGTSASLAISGLRSEDEADYYCSAWDDSLSGVVFGGGTKLTVLGQPKSSPSVTLFPPSSEELETNKATLVCTITDFYPGVVTVDWKVDGTPVTQGMETTQPSKQSNNKYMASSYLTLTARAWERHSSYSCQVTHEGHTVEKSLSRADCS
notes: mIgG1, Lambda
In the case of B1, the “Efficacy (%)” value in the assay with murine IL-11 [1] and in the assay with human IL-11 [2] was 81.8% throughout. Also, the figures for the IC50 with murine IL-11 [1] and with human IL-11 [2] were 0.13 nM and 1.3 nM, respectively. Besides, in the assay with human IL2Ra, the “Antibody/Isotype Control Ratio of IL-2Ra Binding Signals” value (“Antibody/Isotype Control Ratio” for short) was found to be 0.6 ratio.

B2: TPP-29521 (antibody, mouse IgG1)
heavy: B1 heavy with S54E, V57N, S102F
light: B1 light with N35S
notes: mIgG1, Lambda
With B2, the “Efficacy (%)” value with murine IL-11 [1] and with human IL-11 [2] was 85.7% each time. Also, the figures for the IC50 with murine IL-11 [1] and with human IL-11 [2] were 0.092 nM and 1.8 nM, respectively. Also, in the assay with human IL2Ra, the “Antibody/Isotype Control Ratio” value is 0.7 ratio.

B3: TPP-29522 (antibody, mouse IgG1)
heavy: B1 heavy with S54E, V57N, S102F
light: B1 light
notes: mIgG1, Lambda
Take B3: in the assay with murine IL-11 [1], the “Efficacy (%)” value amounted to 85.4% and the 50% inhibitory concentration (IC50) (as a rule, the concentration that inhibits the measured activity by half) is 0.11 nM. The “Antibody/Isotype Control Ratio” value with human IL2Ra is 0.7 ratio. Further, in the assay with human IL-11 [2], the “Efficacy (%)” value is 85.4% and the IC50 stood at 2 nM.

B4: TPP-23580 (antibody, mouse IgG1, kappa)
heavy: EVQLVQSGAEVKKPGASVKISCKASGYTFTDYNMDWVKQAPGQRLEWIGDINPHNGGPIYNQKFTGRATLTVDKSASTAYMELSSLRSEDTAVYYCARGELGHWYFDVWGQGTTVTVSSAKTTPPSVYPLAPGSAAQTNSMVTLGCLVKGYFPEPVTVTWNSGSLSSGVHTFPAVLQSDLYTLSSSVTVPSSTWPSETVTCNVAHPASSTKVDKKIVPRDCGCKPCICTVPEVSSVFIFPPKPKDVLTITLTPKVTCVVVDISKDDPEVQFSWFVDDVEVHTAQTQPREEQFNSTFRSVSELPIMHQDWLNGKEFKCRVNSAAFPAPIEKTISKTKGRPKAPQVYTIPPPKEQMAKDKVSLTCMITDFFPEDITVEWQWNGQPAENYKNTQPIMDTDGSYFVYSKLNVQKSNWEAGNTFTCSVLHEGLHNHHTEKSLSHSPGK
light: DIVLTQSPASLALSPGERATLSCRASKSVSTSGYSYIHWYQQKPGQPPRLLIYLASNLDSGVPARFSGSGSGTDFTLNIHPLEEEDFATYYCQHSRDLPPTFGQGTKLEIKRADAAPTVSIFPPSSEQLTSGGASVVCFLNNFYPKDINVKWKIDGSERQNGVLNSWTDQDSKDSTYSMSSTLTLTKDEYERHNSYTCEATHKTSTSPIVKSFNRNEC
notes: also called BSN 3C6 2.2-2.1-mIgG1Kappa; BSN 3C6 (WO2019238882)
As to B4, the “Efficacy (%)” value with murine IL-11 [1] and with human IL-11 [2] was 45.8% each time. The half-maximal inhibitory concentration (IC50) was 31 nM in the assay with murine IL-11 [1] and 3.4 nM with human IL-11 [2]. In addition, the “Efficacy (%), Stat3 reporter gene assay” value amounted to 64% with human IL-11 [3]; 62.2% with rat IL-11; 88.9% in the assay with murine IL-11 [4]; 21.9% in the assay with cynomolgus IL-11; 68.6% in the assay with human IL-11 [5]; 46.7% in the assay with murine IL-11 [6]. The “IC50, Stat3 reporter gene assay” value with rat IL-11 is 14 nM; with murine IL-11 [4] it was 7.9 nM; with human IL-11 [5], 8.7 nM; with murine IL-11 [6], 28 nM. In the assay with human IL2Ra, the “Antibody/Isotype Control Ratio” value was found to be 2.2 ratio.

The values above are taken from patent US20240317847A1 (Bayer, published 2024).
